These results are taken from US20250223317A1, “KEAP1 INHIBITING PROTEIN-LIKE POLYMERS” (NORTHWESTERN UNIVERSITY, priority 2022, published 2025).

This data set relates to Antioxidant Response Element (ARE) Luciferase HepG2 Reporter cells.

Experimental: Cells were plated at a seeding density of 25k cells/well into 96 well plates in cell growth media and allowed to incubate for 24 hours. […] After 24 hours, 10 μL of MTS reagent was added to each well, and the cells incubated for four hours at 37° C. Absorbance was measured at 490 nm using a Perkin Elmer EnSpire plate reader every hour after MTS addition. Viability was assessed after background subtraction from cell free control wells and calculated as relative viability based on the average of control wells. Viability is reported as a percentage of control groups and prepared for presentation using Prism9.
The reporter and cell viability assays were performed over a concentration range of 0 μM to 10 μM for each of the polymers described.
Cells were plated at a seeding density of 25k cells/well into 96 well plates in cell growth media and allowed to incubate for 24 hours. […] Luminescence was assessed using the Biotek SynergyNeo2 plate reader at the High Throughput Analysis Core at Northwestern University. Background luminescence of cell free controls wells was subtracted from test wells. […] Absorbance was measured at 490 nm using a Perkin Elmer EnSpire plate reader every hour after MTS addition. Viability was assessed after background subtraction from cell free control wells and calculated as relative viability based on the average of control wells. […]

On to DLG Homopolymer (RQDIDLGVSRR), for which the “tolerability (MTS assay)” value is on record as “well tolerated”.
